Results from the supplement of paper PMC10567573.
± gives the standard deviation.

Assay: protein stability index of a GFP-peptide fusion (GPS, HEK-293T) (PSI 1-6); higher = more stable
[1] = treatment: DMSO, c terminus: a fixed tail appended
[2] = treatment: MLN4924 1 uM, 8 h, c terminus: a fixed tail appended
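Further: 24-mer peptide tiles fused after GFP, lentivirally expressed, FACS-sorted into six equal bins by GFP/DsRed ratio, decoded by Illumina sequencing, PSI is the read-weighted mean bin number.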

Sequence | protein stability index [1] | protein stability index [2] | protein stability index (treatment: DMSO, c terminus: native) | protein stability index (treatment: MLN4924 1 uM, 8 h, c terminus: native)
VVPSYIPLVKKHCDDSFTPQEKLW [CPOX] | 2.93 ± 0.15 | 2.98 ± 0.35 | – | –
DTGEEEEGGDESDLSSESSIKKKF [EHMT1] | 5.46 ± 0.32 | 5.3 ± 0.12 | – | –
RCGKFLQDGLPPTWRDFRTLEAFH [MED27] | 2.17 ± 0.33 | 2.12 ± 0.18 | – | –
GPHTISNQNNYRLLSCGKILTGCK [ACSBG2] | 3.21 ± 0.13 | 2.84 ± 0.62 | – | –
NLGDALDSSNSMQTIQKTTTRRIV [KRT18] | 4.38 ± 0.19 | 4.51 ± 0.28 | – | –
SARDASPTPSTDAEYPANGSGADR [NCK2] | 5.51 ± 0.17 | 5.53 ± 0.25 | – | –
MQDYVRTGTYQRAILQNHTDFKDK [CARM1] | 3.92 ± 0.32 | 4.18 ± 0.29 | – | –
ENCTLVTTFRGHTGGVTALCWDPV [WDFY2] | 2.53 ± 0.32 | 2.38 ± 0.18 | – | –
RNSTPPSLARNPAPGVLTNKRKTY [ZC2HC1A] | 4.86 ± 0.21 | 4.68 ± 0.17 | – | –
RWLMVKIFLILIVFFIIFVVFLA [STX5] | – | – | 4.3 ± 0.23 | 4.31 ± 0.33
ATAASSSASSPASVGDPCGGAICG [SLC25A25] | 4.9 ± 0.34 | 4.85 ± 0.11 | – | –
QLRGQLQDLDSRLRAGSSEFDSEH [RASAL3] | 4.71 ± 0.41 | 4.9 ± 0.46 | – | –
VERDNMEEDNVEESEEEGPWEPPV [HDAC6] | 5.58 ± 0.19 | 5.25 ± 0.21 | – | –
ILDTAGTEQFTAMRDLYMKNGQGF [RAP1B] | 3.29 ± 0.36 | 3.46 ± 0.36 | – | –
RTSKSRGFAFITFENPADAKNAAK [RBMY1A1] | 3.26 ± 0.28 | 3.46 ± 0.43 | – | –
RFRRFRFQEAAGPREALSRLQELC [ZNF263] | 2.6 ± 0.48 | 2.58 ± 0.45 | – | –
NAVRQNGQLVRNDSLWHRSDSAPR [MFF] | 4.01 ± 0.25 | 4.07 ± 0.21 | – | –
GSGLSSRFEEPKGPPARQEDSKEL [CBY2] | 5.35 ± 0.27 | 5.5 ± 0.25 | – | –
LFFTALMITVPIGLYFTTKSYIFE [VMA21] | 2.73 ± 0.46 | 2.58 ± 0.055 | – | –
FEPVKSFFKGLVEAVESTLQTPLD [TRIM14] | 2.19 ± 0.2 | 2.4 ± 0.23 | – | –
ARLLCRLQAFGETLLLELEQDSGV [ADAMTS4] | 2.66 ± 1.3 | 2.73 ± 0.29 | – | –
ENTCLLRGFSGGILAFLVLEAVAG [TSPAN10] | 3.27 ± 0.15 | 2.58 ± 0.41 | – | –

Sequence | protein stability index [1] | protein stability index [2] | protein stability index (treatment: DMSO, c terminus: native) | protein stability index (treatment: MLN4924 1 uM, 8 h, c terminus: native)
DEPCAISGKWTFQRDSKRWSRLEE [DLC1] | 3.99 ± 0.14 | 3.91 ± 0.33 | – | –
NGLTPKKKIQVNSKPSIQPKPLLL [ATF6] | 3.48 ± 0.17 | 3.32 ± 0.25 | – | –
PFLLLFLGNFFTTLRVVHHKFHSQ [TMEM120A] | 3.28 ± 0.37 | 3.1 ± 0.22 | – | –
EDQYIFIHDALLEAVTCGNTEVPA [PTPRD] | 3.1 ± 0.32 | 3.01 ± 0.31 | – | –
QKLADLRSLNEEHSKQYRCLSFQP [VDR] | 3.07 ± 0.12 | 3.24 ± 0.17 | – | –
LEAEKLVMFQRRYYKPGLLMMCFI [SCD] | 3.26 ± 0.91 | 2.8 ± 0.44 | – | –
LTPADKAEHMKRQRHPRLRPQSAQ [AUP1] | 4.36 ± 0.16 | 4.57 ± 0.28 | – | –
SSSYSVSSPRSVDSYSSTQHVPEE [ATF6] | 5.16 ± 0.14 | 4.99 ± 0.15 | – | –
RAQKQCRKSSFAFYQAVRDLLPVW [ANKRD9] | 2.33 ± 0.49 | 1.98 ± 0.31 | – | –
LENDTISKQLTLEQLRREKIDLEN [CCDC6] | 4.96 ± 0.27 | 4.88 ± 0.23 | – | –
IGPFGGFFASGFKRAFKIKDFANT [CDS2] | 2.32 ± 0.27 | 2.15 ± 0.4 | – | –
EVEEADGNKQWWFGGGCDLTPTYL [CPOX] | 3.43 ± 0.49 | 3.36 ± 0.39 | – | –
RFSHMSERDLQELSIQVEEERRAR [ZMAT5] | 5.51 ± 0.56 | 4.97 ± 0.87 | – | –
AAVEGSGGSGGGSHHHHQSRGACT [KCNA4] | 4.97 ± 0.16 | 4.7 ± 0.71 | – | –
VTLIVDNTRFVVDPSIFTAQPNTM [BTBD10] | 2.84 ± 0.51 | 3.2 ± 0.74 | – | –
SYPNPNEDKCPGNYTNPLKVQTVI [TMEM192] | 3.17 ± 0.36 | 3.29 ± 0.22 | – | –
TAGLLREQVAQLKQKVMTHVSNGC [JUNB] | 3.25 ± 0.2 | 3.25 ± 0.32 | – | –
EPPEEPEQCPVIDSQAPAGSLDLV [SPDEF] | 5.37 ± 0.17 | 5.51 ± 0.18 | – | –
MAVDKDTTNVGRYPVGRFPSLHVV [FEM1A] | 2.67 ± 0.3 | 2.72 ± 0.34 | – | –
SGHALRILIVDWDVHHGNGTQHMF [HDAC6] | 2.74 ± 0.44 | 3.02 ± 0.75 | – | –
KHYRLQFYMFAWTHVTLLITVTQS [CDS1] | 2.93 ± 0.18 | 3.16 ± 0.16 | – | –
VDFLEPDSGTCPEVDEEGFTVRPD [FCHO1] | 5.45 ± 0.086 | 5.43 ± 0.1 | – | –
